Columns and labels:
SE1-701 = target: T1, SE1-701 (Arabidopsis thaliana, UniProt Q9ZVD0 1-701, del702-720); test: SPR; 50 mM NaCl, 20 nM; as wild-type SE; SPR (Biacore T100): 20 mM Tris-HCl pH 7.0, 50 or 150 mM NaCl, 2 mM β-ME (0.005% P20 for SE variants); proteins 42-43 nM (Fig 2E), SE 20 nM (Fig 4), 16 nM DCL1 for complex; temperature not stated; conditions: protein: recombinant; tags: N-terminal His6; vector also has inserted myc and Strep-tag II; label: 5'-biotin on strand 1; fork: 40 bp duplex; 20-nt 3' tail of strand 1 and 20-nt 5' tail of strand 2 unpaired; other end blunt
T1 sequence: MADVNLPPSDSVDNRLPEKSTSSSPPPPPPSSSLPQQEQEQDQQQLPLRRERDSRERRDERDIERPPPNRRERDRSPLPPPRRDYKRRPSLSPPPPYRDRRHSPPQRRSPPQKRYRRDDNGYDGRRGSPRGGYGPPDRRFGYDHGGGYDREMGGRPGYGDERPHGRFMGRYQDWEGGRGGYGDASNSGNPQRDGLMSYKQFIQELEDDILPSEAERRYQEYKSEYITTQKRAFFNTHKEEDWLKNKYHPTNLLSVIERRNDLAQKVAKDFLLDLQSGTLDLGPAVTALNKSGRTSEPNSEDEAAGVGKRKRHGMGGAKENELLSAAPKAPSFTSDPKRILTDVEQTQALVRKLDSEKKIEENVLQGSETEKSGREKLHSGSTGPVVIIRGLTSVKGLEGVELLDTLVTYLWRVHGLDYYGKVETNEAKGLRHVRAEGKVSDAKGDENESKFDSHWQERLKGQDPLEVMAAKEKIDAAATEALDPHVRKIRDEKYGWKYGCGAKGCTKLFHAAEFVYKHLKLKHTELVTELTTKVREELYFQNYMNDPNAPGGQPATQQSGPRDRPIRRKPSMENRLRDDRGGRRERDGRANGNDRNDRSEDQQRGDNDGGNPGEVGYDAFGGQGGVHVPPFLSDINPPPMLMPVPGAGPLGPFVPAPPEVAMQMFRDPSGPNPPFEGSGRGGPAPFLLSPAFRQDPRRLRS

SEΔ497-547 = target: T2, SEΔ497-547 (Arabidopsis thaliana, UniProt Q9ZVD0 1-720, del497-547); test: as above; conditions: protein: recombinant; tags: N-terminal His6; vector also has inserted myc and Strep-tag II; label: 5'-biotin on strand 1; fork: 40 bp duplex; 20-nt 3' tail of strand 1 and 20-nt 5' tail of strand 2 unpaired; other end blunt
T2 sequence: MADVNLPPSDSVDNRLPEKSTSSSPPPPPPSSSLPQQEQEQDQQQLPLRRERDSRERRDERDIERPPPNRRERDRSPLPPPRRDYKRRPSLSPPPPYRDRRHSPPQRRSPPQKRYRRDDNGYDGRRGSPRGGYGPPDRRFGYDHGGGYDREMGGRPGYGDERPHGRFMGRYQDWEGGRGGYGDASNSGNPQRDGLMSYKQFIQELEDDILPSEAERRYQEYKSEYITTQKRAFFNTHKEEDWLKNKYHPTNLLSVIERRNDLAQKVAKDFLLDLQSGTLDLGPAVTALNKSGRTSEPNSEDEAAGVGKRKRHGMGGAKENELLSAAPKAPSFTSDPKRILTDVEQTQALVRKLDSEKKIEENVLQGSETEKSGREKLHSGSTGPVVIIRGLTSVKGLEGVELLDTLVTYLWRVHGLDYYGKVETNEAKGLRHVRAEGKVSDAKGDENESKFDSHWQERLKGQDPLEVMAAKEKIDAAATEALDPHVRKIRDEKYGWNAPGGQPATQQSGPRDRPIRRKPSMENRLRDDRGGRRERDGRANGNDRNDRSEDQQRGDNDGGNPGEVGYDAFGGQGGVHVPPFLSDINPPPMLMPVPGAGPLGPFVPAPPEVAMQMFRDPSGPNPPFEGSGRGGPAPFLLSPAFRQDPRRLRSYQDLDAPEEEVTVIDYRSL

DCL1;SE1-701 = DCL1;SE1-701 (Arabidopsis thaliana;Arabidopsis …, UniProt Q9SP32;Q9ZVD0 1-1909;1-701, |del702-720); test: SPR; SE1-701 injected on preformed DCL1/RNA complex, 50 mM NaCl; as wild-type SE; SPR (Biacore T100): 20 mM Tris-HCl pH 7.0, 50 or 150 mM NaCl, 2 mM β-ME (0.005% P20 for SE variants); proteins 42-43 nM (Fig 2E), SE 20 nM (Fig 4), 16 nM DCL1 for complex; temperature not stated; conditions: protein: recombinant;recombinant; tags: none (His6-StrepII-SUMOstar removed);N-terminal His6; vector also has inserted myc and Strep-tag II; label: 5'-biotin on strand 1; fork: 40 bp duplex; 20-nt 3' tail of strand 1 and 20-nt 5' tail of strand 2 unpaired; other end blunt
Chain of DCL1;SE1-701 (Q9SP32 whole entry, stated change not applied, one chain of several): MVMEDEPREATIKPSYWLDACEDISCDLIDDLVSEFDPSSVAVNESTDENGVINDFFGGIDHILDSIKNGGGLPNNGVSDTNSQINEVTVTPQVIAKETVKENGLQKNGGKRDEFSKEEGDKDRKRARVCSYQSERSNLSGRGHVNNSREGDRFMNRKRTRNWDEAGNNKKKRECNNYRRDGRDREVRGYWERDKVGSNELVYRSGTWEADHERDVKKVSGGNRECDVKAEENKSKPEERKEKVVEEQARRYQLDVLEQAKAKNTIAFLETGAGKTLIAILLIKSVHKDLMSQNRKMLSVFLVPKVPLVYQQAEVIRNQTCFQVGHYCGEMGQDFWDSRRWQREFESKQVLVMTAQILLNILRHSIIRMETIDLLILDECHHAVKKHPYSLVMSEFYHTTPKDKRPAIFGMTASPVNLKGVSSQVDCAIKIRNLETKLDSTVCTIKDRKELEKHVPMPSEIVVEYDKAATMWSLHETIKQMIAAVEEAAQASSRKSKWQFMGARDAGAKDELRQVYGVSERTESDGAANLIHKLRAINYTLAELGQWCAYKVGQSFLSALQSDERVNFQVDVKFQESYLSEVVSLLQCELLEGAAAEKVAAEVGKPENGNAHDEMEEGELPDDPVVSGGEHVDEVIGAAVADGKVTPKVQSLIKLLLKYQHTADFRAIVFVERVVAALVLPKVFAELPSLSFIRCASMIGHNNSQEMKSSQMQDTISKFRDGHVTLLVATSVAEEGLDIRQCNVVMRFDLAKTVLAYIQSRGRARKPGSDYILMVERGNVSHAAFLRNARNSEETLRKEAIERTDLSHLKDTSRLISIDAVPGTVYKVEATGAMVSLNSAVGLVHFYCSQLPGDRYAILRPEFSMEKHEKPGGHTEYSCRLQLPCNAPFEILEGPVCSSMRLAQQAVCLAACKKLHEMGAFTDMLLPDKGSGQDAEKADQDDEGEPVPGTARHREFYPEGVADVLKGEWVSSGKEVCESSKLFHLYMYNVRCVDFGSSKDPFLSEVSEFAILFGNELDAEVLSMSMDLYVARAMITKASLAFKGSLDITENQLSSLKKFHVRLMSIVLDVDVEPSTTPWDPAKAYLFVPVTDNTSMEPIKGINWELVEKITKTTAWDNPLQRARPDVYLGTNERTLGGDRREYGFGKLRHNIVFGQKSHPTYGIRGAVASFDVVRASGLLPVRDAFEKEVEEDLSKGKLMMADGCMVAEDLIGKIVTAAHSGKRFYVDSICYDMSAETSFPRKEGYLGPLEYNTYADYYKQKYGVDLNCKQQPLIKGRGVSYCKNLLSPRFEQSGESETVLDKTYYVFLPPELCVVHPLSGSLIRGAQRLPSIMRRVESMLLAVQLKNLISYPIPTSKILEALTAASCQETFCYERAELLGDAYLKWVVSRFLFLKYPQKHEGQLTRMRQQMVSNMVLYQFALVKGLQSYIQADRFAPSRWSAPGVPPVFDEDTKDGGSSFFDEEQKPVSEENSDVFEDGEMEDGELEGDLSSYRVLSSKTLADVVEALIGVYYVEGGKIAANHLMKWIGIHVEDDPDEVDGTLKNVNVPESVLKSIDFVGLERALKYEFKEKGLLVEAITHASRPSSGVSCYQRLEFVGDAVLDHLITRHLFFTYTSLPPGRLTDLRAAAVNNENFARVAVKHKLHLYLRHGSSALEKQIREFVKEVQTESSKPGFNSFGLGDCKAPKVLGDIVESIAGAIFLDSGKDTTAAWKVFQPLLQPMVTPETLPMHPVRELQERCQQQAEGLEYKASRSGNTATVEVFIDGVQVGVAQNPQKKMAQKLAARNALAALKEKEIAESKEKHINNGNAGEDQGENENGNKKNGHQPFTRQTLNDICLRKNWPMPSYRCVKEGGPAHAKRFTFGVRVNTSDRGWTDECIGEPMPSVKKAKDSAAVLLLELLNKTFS

Measured: binding result

B1: forked-RNA (dsRNA)
RNA 1: CAACCCAAGAUAGAUCAUGCAGGCAGCUUCAUCAGAUGCCGCUCCCUCUUUUUUUCUCUA
RNA 2: GCUCCCUCUUUUUUUCUCUAGGCAUCUGAUGAAGCUGCCUGCAUGAUCUAUCUUGGGUUG
binds: all assays above
